Measurements from the supplement of paper PMC10724198.
± gives the standard deviation of the averaged measurements.

Columns and labels:
[1] = test system: Saccharomyces cerevisiae; experiment: protein stability index of tFT-peptide fusion (C-terminal peptide) (PSI (0-1 scale)); higher = more stable (slower turnover); settings: genetic background: wild type; temperature: 30 C
[2] = test system: Saccharomyces cerevisiae; experiment: as above
Description: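 MPS profiling in S. cerevisiae of the tFT-X12 degron library: putative degron peptides plus stable controls, 12 aa, fused to the C-terminus of a sfGFP-mCherry timer. Cells are FACS-sorted into 8 mCherry/sfGFP bins and deep-sequenced. PSI runs from 0 (unstable) to 1 (stable). Backgrounds are wild type, das1Δ and doa10Δ at 30 °C, and wild type, das1Δ, cdc34-1 and cdc53-1 at 37 °C; 2-3 technical replicates each.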

[3] = genetic background: cdc34-1, temperature: 37 C
[4] = genetic background: cdc53-1, temperature: 37 C
[5] = genetic background: das1 deletion, temperature: 30 C
[6] = genetic background: das1 deletion, temperature: 37 C
[7] = genetic background: doa10 deletion, temperature: 30 C
[8] = genetic background: wild type, temperature: 30 C
[9] = genetic background: wild type, temperature: 37 C
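Further: PSI is a weighted mean of sequencing reads over stability bins, variants kept only with over 10 reads, mCherry proximal and sfGFP distal, peptide attached via GGGS linker.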

Sequence	protein stability index [1]	protein stability index [2, 3]	protein stability index [2, 4]	protein stability index [2, 5]	protein stability index [2, 6]	protein stability index [2, 7]	protein stability index [2, 8]	protein stability index [2, 9]
SPLASLRFWCFC	0.437 ± 0.015	0.68 ± 0.059	0.768 ± 0.0088	0.6502 ± 0.0037	0.778 ± 0.018	0.335 ± 0.01	0.349 ± 0.028	0.592 ± 0.024
SPPPLFLIVLHL	0.4283 ± 0.0032	0.495 ± 0.0063	0.562 ± 0.028	0.446 ± 0.021	0.639 ± 0.012	0.4 ± 0.021	0.371 ± 0.048	0.52 ± 0.018
SRCLALVICYRV	0.265 ± 0.011	0.539 ± 0.041	0.582 ± 0.031	0.439 ± 0.021	0.5979 ± 0.0043	0.152 ± 0.016	0.185 ± 0.024	0.3 ± 0.0041
SRGKMTIVSNQI	0.574 ± 0.15	0.6525 ± 0.00094	0.734 ± 0.011	0.652 ± 0.021	0.7389 ± 0.0072	0.642 ± 0.011	0.669 ± 0.016	0.704 ± 0.028
SRGLVPMANRYC	0.298 ± 0.045	0.659 ± 0.07	0.7383 ± 0.0028	0.656 ± 0.03	0.741 ± 0.018	0.142 ± 0.0075	0.16 ± 0.02	0.42 ± 0.014
SRPGRWRLYYVS	0.401 ± 0.098	0.6867 ± 0.0067	0.802 ± 0.016	0.679 ± 0.0079	0.758 ± 0.011	0.38 ± 0.023	0.383 ± 0.022	0.54 ± 0.0037
SRSVLLCFCWLC	0.347 ± 0.011	0.356 ± 0.055	0.4492 ± 0.0017	0.411 ± 0.038	0.5256 ± 0.0042	0.27 ± 0.0089	0.264 ± 0.014	0.3461 ± 0.00068
SVFCSLFLFLFY	0.422 ± 0.037	0.477 ± 0.025	0.5013 ± 0.0034	0.4 ± 0.032	0.5568 ± 0.0013	0.414 ± 0.026	0.388 ± 0.01	0.517 ± 0.026
SVGCCLLCFFVL	0.425 ± 0.028	0.523 ± 0.012	0.563 ± 0.012	0.41 ± 0.03	0.5645 ± 0.0043	0.339 ± 0.029	0.351 ± 0.029	0.5031 ± 0.0027
SWMSQFSILLTA	0.285 ± 0.043	0.0938 ± 0.037	0.122 ± 0.0092	0.188 ± 0.021	0.23 ± 0.0046	0.1535 ± 0.00097	0.167 ± 0.031	0.199 ± 0.04
SYVLLQSYVSLV	0.451 ± 0.021	0.566 ± 0.017	0.623 ± 0.016	0.474 ± 0.0091	0.643 ± 0.016	0.318 ± 0.016	0.352 ± 0.029	0.613 ± 0.083
TCVTLRYRLTFE	0.508 ± 0.11	0.638 ± 0.11	0.666 ± 0.027	0.564 ± 0.022	0.667 ± 0.043	0.585 ± 0.04	0.522 ± 0.025	0.621 ± 0.02
TFLFPLPFLFFI	0.0963 ± 0.016	0.0467 ± 0.0054	0.0387 ± 0.0025	0.102 ± 0.019	0.119 ± 0.03	0.29 ± 0.014	0.0685 ± 0.02	0.101 ± 0.0099
TFRPWPLHILAL	0.257 ± 0.029	0.195 ± 0.0033	0.219 ± 0.029	0.216 ± 0.038	0.325 ± 0.0089	0.15 ± 0.0036	0.166 ± 0.026	0.201 ± 0.019
THRAVGIGLRCC	0.358 ± 0.025	0.558 ± 0.042	0.637 ± 0.02	0.496 ± 0.029	0.645 ± 0.0067	0.165 ± 0.01	0.186 ± 0.022	0.4005 ± 0.0016
TIRKCIIKWIKI	0.368 ± 0.016	0.591 ± 0.032	0.581 ± 0.031	0.475 ± 0.021	0.596 ± 0.029	0.174 ± 0.0094	0.189 ± 0.036	0.398 ± 0.024
TKDFVIKKTKIS	0.169 ± 0.021	0.537 ± 0.017	0.7393 ± 0.0047	0.641 ± 0.019	0.737 ± 0.022	0.135 ± 0.03	0.159 ± 0.03	0.236 ± 0.028
TLDWKFGRGGIG	0.375 ± 0.0046	0.315 ± 0.0073	0.4083 ± 0.0019	0.348 ± 0.017	0.406 ± 0.017	0.33 ± 0.0094	0.338 ± 0.01	0.4041 ± 0.0037
TVLGRDFALSVC	0.4599 ± 0.00056	0.455 ± 0.0056	0.4916 ± 0.004	0.361 ± 0.046	0.543 ± 0.015	0.308 ± 0.0071	0.346 ± 0.023	0.501 ± 0.0061
TVYMVIRVIVWG	0.207 ± 0.027	0.129 ± 0.023	0.126 ± 0.046	0.141 ± 0.055	0.246 ± 0.0077	0.0909 ± 0.023	0.102 ± 0.032	0.154 ± 0.013
